The source of these data is patent US20240391954A1, “MC4R AGONIST PEPTIDES” (The Regents of the University of Michigan, priority 2021, published 2024).

Positions of bridges follow the written chain, without caps; N, C: chain ends. Non-standard residues stand in square brackets, D forms with d. dPhe(4-Br) = N[C@H](Cc1ccc(Br)cc1)C(=O)O; dPhe(4-I) = N[C@H](Cc1ccc(I)cc1)C(=O)O; d(αMeF) = C[C@@](N)(Cc1ccccc1)C(=O)O; Nle = CCCC[C@H](N)C(=O)O; R2 = not defined here

What all share (experiment): cell-based or functional assay
For one assay, the target named is human MC3R (human, UniProt P41968 1-323).
Chain of human MC3R (P41968 whole entry): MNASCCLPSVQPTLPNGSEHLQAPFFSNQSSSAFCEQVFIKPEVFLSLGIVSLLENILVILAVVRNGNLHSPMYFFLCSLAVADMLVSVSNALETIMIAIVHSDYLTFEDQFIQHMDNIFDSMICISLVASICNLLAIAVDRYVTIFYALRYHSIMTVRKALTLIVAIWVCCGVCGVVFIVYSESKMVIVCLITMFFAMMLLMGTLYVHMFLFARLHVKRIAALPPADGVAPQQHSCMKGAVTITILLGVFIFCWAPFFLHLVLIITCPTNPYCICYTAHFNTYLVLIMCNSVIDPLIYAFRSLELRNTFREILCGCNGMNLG
In assay [1] the target is T1, human MC4R receptor (human, UniProt P32245 1-332).
T1 sequence (P32245 whole entry): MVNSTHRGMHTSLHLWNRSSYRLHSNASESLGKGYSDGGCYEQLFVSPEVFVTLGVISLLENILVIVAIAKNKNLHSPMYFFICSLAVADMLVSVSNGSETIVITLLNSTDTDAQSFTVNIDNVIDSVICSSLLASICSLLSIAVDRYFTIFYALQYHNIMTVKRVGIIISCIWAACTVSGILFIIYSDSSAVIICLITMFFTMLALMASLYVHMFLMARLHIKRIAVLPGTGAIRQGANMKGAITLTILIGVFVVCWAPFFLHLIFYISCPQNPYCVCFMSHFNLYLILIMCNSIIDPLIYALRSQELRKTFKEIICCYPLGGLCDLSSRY
For assay [2], the target named is T1, human MC4R receptor. The source holds these as a separate data set.

B1: CTX-1226 (peptide)
peptide: R2-RC[dA]R[dPhe(4-Br)]R[dW]C-NH2
modifications: disulfide 2-8; reading uncertain; also: printed as N-term. Mod. R2; Arg-cyclo(Cys-D-Ala-Arg-D-Phe(4-Br)-Arg-D-Trp-Cys)-NH2
Consider B1, for which, in the assay with human MC3R, the “% max activation” value was 29% and the “cAMP EC50” value worked out at 12 nM. For the same molecule, in the assay with human MC4R receptor [1], the “% max activation” value was 71% and the “cAMP EC50” value was determined as 3.8 nM. Further, in the assay with human MC4R receptor [2], the “MC4R selectivity vs MC1R” value came to 1.33 and the “MC4R selectivity vs MC3R” value is 3.21.

B2: CTX-1219 (peptide)
peptide: Ac-RC[dA]R[dPhe(4-Br)]R[dW]CRFG-OH
modifications: disulfide 2-8
SMILES: CC(=O)N[C@@H](CCCNC(=N)N)C(=O)N[C@H]1CSSC[C@@H](C(=O)N[C@@H](CCCNC(=N)N)C(=O)N[C@@H](Cc2ccccc2)C(=O)NCC(=O)O)NC(=O)[C@@H](Cc2c[nH]c3ccccc23)NC(=O)[C@H](CCCNC(=N)N)NC(=O)[C@@H](Cc2ccc(Br)cc2)NC(=O)[C@H](CCCNC(=N)N)NC(=O)[C@@H](C)NC1=O
On to B2, for which, in the assay with human MC3R, the “% max activation” value worked out at 20% and the “cAMP EC50” value turned out to be 4.5 nM. In addition, in the assay with human MC4R receptor [1], the “% max activation” value is 76% and the “cAMP EC50” value was 2.3 nM. In the assay with human MC4R receptor [2], the “MC4R selectivity vs MC1R” value is 1 and the “MC4R selectivity vs MC3R” value is 1.99.

B3: CTX-1240 (peptide)
peptide: Ac-RC[dA]R[d(αMeF)]R[dW]C-NH2
modifications: disulfide 2-8
SMILES: CC(=O)N[C@@H](CCCNC(=N)N)C(=O)N[C@H]1CSSC[C@@H](C(N)=O)NC(=O)[C@@H](Cc2c[nH]c3ccccc23)NC(=O)[C@H](CCCNC(=N)N)NC(=O)[C@@](C)(Cc2ccccc2)NC(=O)[C@H](CCCNC(=N)N)NC(=O)[C@@H](C)NC1=O
Take B3: in the assay with human MC3R, the “% max activation” value was 27% and the “cAMP EC50” value was found to be 31 nM. In the assay with human MC4R receptor [1], the “% max activation” value was 81% and the “cAMP EC50” value came to 76 nM. In the assay with human MC4R receptor [2], the “MC4R selectivity vs MC1R” value came out at 0.46 and the “MC4R selectivity vs MC3R” value was 0.41.

B4: CTX-1231 (peptide)
peptide: Ac-R[Nle]CH[dPhe(4-Br)]R[dW]C-NH2
modifications: disulfide 3-8
SMILES: CCCC[C@H](NC(=O)[C@H](CCCNC(=N)N)NC(C)=O)C(=O)N[C@H]1CSSC[C@@H](C(N)=O)NC(=O)[C@@H](Cc2c[nH]c3ccccc23)NC(=O)[C@H](CCCNC(=N)N)NC(=O)[C@@H](Cc2ccc(Br)cc2)NC(=O)[C@H](Cc2c[nH]cn2)NC1=O
As to B4, in the assay with human MC3R, the “% max activation” value stood at 59% and the “cAMP EC50” value was 7 nM. For the same molecule, in the assay with human MC4R receptor [1], the “% max activation” value was 64% and the “cAMP EC50” value was 2.3 nM. For the same molecule, in the assay with human MC4R receptor [2], the “MC4R selectivity vs MC1R” value was 0.19 and the “MC4R selectivity vs MC3R” value was found to be 3.04.

B5: CTX-1222 (peptide)
peptide: Ac-RC[dA]R[dPhe(4-Br)]R[dW]CR[dF]-NH2
modifications: disulfide 2-8
SMILES: CC(=O)N[C@@H](CCCNC(=N)N)C(=O)N[C@H]1CSSC[C@@H](C(=O)N[C@@H](CCCNC(=N)N)C(=O)N[C@H](Cc2ccccc2)C(N)=O)NC(=O)[C@@H](Cc2c[nH]c3ccccc23)NC(=O)[C@H](CCCNC(=N)N)NC(=O)[C@@H](Cc2ccc(Br)cc2)NC(=O)[C@H](CCCNC(=N)N)NC(=O)[C@@H](C)NC1=O
Take B5: in the assay with human MC3R, the “% max activation” value is 38% and the “cAMP EC50” value was 9.8 nM. Further, in the assay with human MC4R receptor [1], the “% max activation” value stood at 79% and the “cAMP EC50” value stood at 30 nM. For the same molecule, in the assay with human MC4R receptor [2], the “MC4R selectivity vs MC1R” value came out at 0.1 and the “MC4R selectivity vs MC3R” value stood at 0.33.

B6: CTX-1217 (peptide)
peptide: Ac-RC[dA]R[dPhe(4-Br)]R[dW]CKP-NH2
modifications: disulfide 2-8
SMILES: CC(=O)N[C@@H](CCCNC(=N)N)C(=O)N[C@H]1CSSC[C@@H](C(=O)N[C@@H](CCCCN)C(=O)N2CCC[C@H]2C(N)=O)NC(=O)[C@@H](Cc2c[nH]c3ccccc23)NC(=O)[C@H](CCCNC(=N)N)NC(=O)[C@@H](Cc2ccc(Br)cc2)NC(=O)[C@H](CCCNC(=N)N)NC(=O)[C@@H](C)NC1=O
For the molecule B6, in the assay with human MC3R, the “% max activation” value was determined as 13% and the “cAMP EC50” value stood at 4 nM. Also, in the assay with human MC4R receptor [1], the “% max activation” value came to 69% and the “cAMP EC50” value came to 1.5 nM. Further, in the assay with human MC4R receptor [2], the “MC4R selectivity vs MC1R” value worked out at 1.12 and the “MC4R selectivity vs MC3R” value stood at 2.73.

B7: CTX-1233 (peptide)
peptide: Ac-R[Nle]CH[dPhe(4-I)]R[dW]C-NH2
modifications: disulfide 3-8
SMILES: CCCC[C@H](NC(=O)[C@H](CCCNC(=N)N)NC(C)=O)C(=O)N[C@H]1CSSC[C@@H](C(N)=O)NC(=O)[C@@H](Cc2c[nH]c3ccccc23)NC(=O)[C@H](CCCNC(=N)N)NC(=O)[C@@H](Cc2ccc(I)cc2)NC(=O)[C@H](Cc2c[nH]cn2)NC1=O
Turning to B7, in the assay with human MC3R, the “% max activation” value was found to be 22% and the “cAMP EC50” value came out at 4.1 nM. In addition, in the assay with human MC4R receptor [1], the “% max activation” value came to 16% and the “cAMP EC50” value came out at 2.2 nM. In addition, in the assay with human MC4R receptor [2], the “MC4R selectivity vs MC1R” value is 0.26 and the “MC4R selectivity vs MC3R” value is 1.88.

B8: CTX-1218 (peptide)
peptide: Ac-RC[dA]R[dPhe(4-Br)]R[dW]CK-NH2
modifications: disulfide 2-8
SMILES: CC(=O)N[C@@H](CCCNC(=N)N)C(=O)N[C@H]1CSSC[C@@H](C(=O)N[C@@H](CCCCN)C(N)=O)NC(=O)[C@@H](Cc2c[nH]c3ccccc23)NC(=O)[C@H](CCCNC(=N)N)NC(=O)[C@@H](Cc2ccc(Br)cc2)NC(=O)[C@H](CCCNC(=N)N)NC(=O)[C@@H](C)NC1=O
Take B8: the “% max activation” value with human MC3R came to 16%. Further, the “% max activation” value in the assay with human MC4R receptor [1] worked out at 77%. Moreover, in the assay with human MC4R receptor [2], the “MC4R selectivity vs MC1R” value was found to be 1 and the “MC4R selectivity vs MC3R” value stood at 1.85.

B9: CTX-1220 (peptide)
peptide: Ac-RC[dA]R[dPhe(4-Br)]R[dW]CRF-NH2
modifications: disulfide 2-8
SMILES: CC(=O)N[C@@H](CCCNC(=N)N)C(=O)N[C@H]1CSSC[C@@H](C(=O)N[C@@H](CCCNC(=N)N)C(=O)N[C@@H](Cc2ccccc2)C(N)=O)NC(=O)[C@@H](Cc2c[nH]c3ccccc23)NC(=O)[C@H](CCCNC(=N)N)NC(=O)[C@@H](Cc2ccc(Br)cc2)NC(=O)[C@H](CCCNC(=N)N)NC(=O)[C@@H](C)NC1=O
In the case of B9, in the assay with human MC3R, the “% max activation” value is 21% and the “cAMP EC50” value came out at 7.2 nM. For the same molecule, in the assay with human MC4R receptor [1], the “% max activation” value was 76% and the “cAMP EC50” value was 1.87 nM. In addition, in the assay with human MC4R receptor [2], the “MC4R selectivity vs MC1R” value amounted to 1.53 and the “MC4R selectivity vs MC3R” value amounted to 3.82.

B10: CTX-1237 (peptide)
peptide: Ac-RC[dA]R[dY]R[dW]C-NH2
modifications: disulfide 2-8
SMILES: CC(=O)N[C@@H](CCCNC(=N)N)C(=O)N[C@H]1CSSC[C@@H](C(N)=O)NC(=O)[C@@H](Cc2c[nH]c3ccccc23)NC(=O)[C@H](CCCNC(=N)N)NC(=O)[C@@H](Cc2ccc(O)cc2)NC(=O)[C@H](CCCNC(=N)N)NC(=O)[C@@H](C)NC1=O
For the molecule B10, in the assay with human MC3R, the “% max activation” value amounted to 19% and the “cAMP EC50” value is 79 nM. Further, in the assay with human MC4R receptor [1], the “% max activation” value worked out at 61% and the “cAMP EC50” value came to 998 nM. Also, in the assay with human MC4R receptor [2], the “MC4R selectivity vs MC1R” value came to 0.24 and the “MC4R selectivity vs MC3R” value came out at 0.08.
